assay: soluble on expression in E. coli; label from the status in PepcDB or PDB records

Sequence | soluble on expression in E. coli
MQPQAFYRVVAEDFTAVDGIIRRQLTSRVPLVEKIGDYIISAGGKRLRPLLVLLAGKTLGYKGDDLCLLAATIEFLHTSTLLHDDVVDASGLRRGRSTANALWGNAPSVLVGDFLYARSFEMMVELGSMPVMRIISQATRVIAEGEVLQLSKVRDASTTEETYMEVIRGKTAMLFEASTHSAAALCQAGEEQSEALRRFGDYLGIAFQLVDDLLDYRGDAATLGKNVGDDLAEGKPTLPLIVTMRDGTEEQAALVRKAIQQGGSQDLESVCAAVEAAGALDYTANLARDYAARAIACLDTLPDNEYRSALVELSEFAVARTH | not soluble
MSLEFQNLANRILDEKSRSFSQSNQTALETLLKPFREQIEGFQKRVNEIHSESVKGNAGLEAEIKKVLEIGLNMSQEASNLTSALKGEKKTLGNWGEVQLERALQLAGLEENVHYRAQAHFKDEQGGRNYPDFVLNLPDEKHLIIDSKMSLVAYESAVNSEDDFERERLLKEHISALKTHINDLHKKDYSNLIGMCSPNFVLMFIAVEPAYIEALKADPALFNYGYERNVIMVSHTTLMPILRTVANLWRIERGNAEAKEIAEKAGEIYNQICLVAERLNKLGNTLSTVSNQYNSTVTALVGQQGLVGKVERFKTLSAKANKTMPDVDLLNNQLDLARLNVLNQENLQEGHHHHHH | soluble
MGSDKIHHHHHHMNLSHLKMMITVANLGSLQKTAEQLNRTQSAVSMALKKLEENAGFALFNRDGYRLELTEQGQHFLRQAEEVVRQQQRLQSLATQLKHGAEPLLTLCYDHTCDSKLWVPSIQHIQQQYPTTELHVDGESQMRALKRIDNGSADLALCPWLPLFRQYGDFETLPVAPFELTVVISTALMKEFGRMPQSRQDLLELPMLVPQNLEIGINLDAVLRLPSQQRIRVNEVNTQFELLMAGFGWGIIPKHIALDALEQGKLVEISIPGFVQQVRLEIHLVRSANRTLGPAANAIWESFA | not soluble
MSLDLNDTYSGKREPFSGDHSADGFEVTSRSEMSSGSEISPVSEMPSSSEPSSGADYDYSEEYDNEPQIPGYIVDDSVRVEQVVKPPQNKTESENTSDKPKRKKKGGKNGKNRRNRKKKNPCNAEFQNFCIHGECKYIEHLEAVTCKCQQEYFGERCGEKSMKTHSMIDSSEGHHHHHH | soluble
MGSDKIHHHHHHMDVVLHIGAHRTASSALQHHLSRNRSKLAEAGVVYWGPKITRGGLFRGAIGGVEGALPWQERRFGKRCALRAEAVRQTGATHLMISDENMVGSLRGALEFTRLYSDAGRRIASYAHGFKTHRMTVALCIRDYADWWVSAMAFRLPRGGPLPRTQARERLVTQPRRWRHVVEDLAQALPDARLVVWSYEASAHALPTLVGDLTGVASADDRAGPRNLRPTAADLHDLMDACDIDPDMFHWPDGQFMPFTVHETEALRAQYQEDLAWLRAGARGFADYIDAPSAQTEAPTDLGRGNPDDGEHRQLA | not soluble
MFVLSIALLSCTTLCAATTEWWGDLRAHLNPARQAPFYDVTYDEKVNVCPQGLHADAIPEYVYFGTMLATMTVDEHDQCLQKCAEKPRCKAVNFFHPFAYQEKGFCELLTEGQLDNPSLMRPFRKATYYEKIRCRELDDVEDVEEAAPIGSEITEKLPEDMAREKKLDMSKLMKKLSAKVKEFNGGAGGFRAAR | not soluble
MGSDKIHHHHHHMKRQAKIEIQNALVDLMAEYPFQEISTKMICAYCNINRSTFYDYYKDKFDLLDTINSKHKEKFQFLLSALHHNFENIKQDKLKLYKFFIIIAKYIKHNEQFFKDILVTYPMKTLFIDYINLARDYYQQIMNDYSTTVTNKQLYVTYIIGGQAGVFINWLSNGCNESPEEVADILLANTIKLQIQ | not soluble
WGYQTDGRFQNFDEINTYPIQNGDNGNSKELPGDYILKDVNGDGVVNDLDKTPLFWSGSPLIHYGFNVEASWKNFDFYALFQGSALYTVQFDEVYAKMLCFKGGNTPEYFYDRWHLSDPYDANSEWIPGEWPAIRLEQDMGSFYTRDSQIWRKNASYLRLKTIEIGYTFSPRLMHKLGIGSLRIYANGNNLFTVCDPFVKAFDPEKIEGDYSAGLNYPLNKSFNFGLTLNF | not soluble
MGSDKIHHHHHHVEPRSLRSRRSSSYYCGELIKADFSQRREFVMRNSLRRWKNEKLAQKLKKVFESKSVRVIYLPDIEMVVEEVHKLIPDGATVSSGGSVTLQETGVMDLLRSGKYEFLDRDSVSEDKERRKIMIKAFESDYYLCSANAITENGEILLLDGSGNRAAAVTFGPEKVIFVAGINKVVEDLDAGIKRIKSIAPMNAKRLNLHTPCATTGFCSDCSSEERICEMYSIIIDSRRRPWRYTIVLIGEELGL | not soluble
MQKKSIYVAYTGGTIGMQRSEQGYIPVSGHLQRQLALMPEFHRPEMPDFTIHEYTPLMDSSDMTPEDWQHIAEDIKAHYDDYDGFVILHGTDTMAYTASALSFMLENLGKPVIVTGSQIPLAELRSDGQINLLNALYVAANYPINEVTLFFNNRLYRGNRTTKAHADGFDAFASPNLPPLLEAGIHIRRLNTPPAPHGEGELIVHPITPQPIGVVTIYPGISADVVRNFLRQPVKALILRSYGVGNAPQNKAFLQELQEASDRGIVVVNLTQCMSGKVNMGGYATGNALAHAGVIGGADMTVEATLTKLHYLLSQELDTETIRKAMSQNLRGELTPDD | soluble
MSLKKLTVAALAVTTLLSGSAFAHEAGEFFMRAGSATVRPTEGAGGTLGSLGGFSVTNNTQLGLTFTYMATDNIGVELLAATPFRHKIGTRATGDIATVHHLPPTLMAQWYFGDASSKFRPYVGAGINYTTFFDNGFNDHGKEAGLSDLSLKDSWGAAGQVGVDYLINRDWLVNMSVWYMDIDTTANYKLGGAQQHDSVRLDPWVFMFSAGYRFEGGSHHHHHH | soluble
MKISPSRQVKGEIEIIPVSGFRGIGKFIDVPWRLYADDPLWVPPLRLERRLHLSRFNPYFRHAQWQGWIACRDNQPVGRISAQIDELYQQRYGTDTGHFGMLESIQDEAVFSRLIQVAESWLVERGVRQISGPFNFSINQECGLLVQGFDTPPVFMMPYSPEWYTSLLEQNGYQPCKDLLAYWLVTDFDPPPAMQAIDRKYRHQIRIRPLQRNRFNEEIETMRDIFNDAWSDNWGFVPFTQEEFAELGSSLRWLVPDEFIQIAEIDGRPVAFMAVLPNLNEVLPALNGKLLPLGWLHLINKLKSASITTGRVPLMGVRKQFHHTLVGIALAFKVIDAPRKMVKSRGIGHVELSWILEDNQSMRAILEKIGGREYKRYRIYDKTLA | not soluble
MFADLDYDIEEDKLGIPTVPGKVTLQKDAQNLIGISIGGGAQYCPCLYIVQVFDNTPAALDGTVAAGDEITGVNGRSIKGKTKVEVAKMIQEVKGEVTIHYNKLQADPKQGMSLDIVLKKVKHRLVENMSSGTADALGLSRAILCNDGLVKRLEELERTAELYKGMTEHTKNLLRAFYELSQTHRAFGDVFSVIGVREPQPAASEAFVKFADAHRSIEKFGIRLLKTIKPMLTDLNTYLNKAIPDTRLTIKKYLDVKFEYLSYCLKVKEMDDEEYSCIALGEPLYRVSTGNYEYRLILRCRQEARARFSQMRKDVLEKMELLDQKHVQDIVFQLQRLVSTMSKYYNDCYAVLRDADVFPIEVDLAHTTLAYGLNQEEFTDGEEEEEEEDTAAGEPSRDTRGAAGPLDKGGSWCDS | soluble
MAHHHHHHMTILHNPGLPRVLNRITPQRLELTLMLIKERKKKLRYLGSYLQHYNDRTFLYNAMGGLNGTKFIIERHHHRAQYCHPTLHNERYSVRTIKMKGAQFDQVGNFTRNTWDCSVATTNLFQDATFRRHLSAIHKDEAIALLEGWGVKYVLLDEVRKPSVQDSIYVRHNLYIHKFPHIPDPVTNVYHGDADWKWKGDEKIDYTSYGASTKDERNTFQSLWSAAVRESKDSGVAKTVQAGKKL | not soluble
MAGTGLLALRTLPGPSWVRGSGPSVLSRLQDAAVVRPGFLSTAEEETLSRELEPELRRRRYEYDHWDAAIHGFRETEKSRWSEASRAILQRVQAAAFGPGQTLLSSVHVLDLEARGYIKPHVDSIKFCGATIAGLSLLSPSVMRLVHTQEPGEWLELLLEPGSLYILRGSARYDFSHEILRDEESFFGERRIPRGRRISVICRSLPEGMGPGESGQPPPACLEHHHHHH | soluble
MGSDKIHHHHHHMKELVNILDFLPEELGEKIKPMFRVKQIYQWIYQKYANNFSDMSSLPKDLRLELARNFHFSPVKCVKNEQSKDGSIKYLFELIDGLRVESVLLPMKEEKIDAEGKRISHARYTICVSSQVGCKSGCSFCLTAKGGLKRNLSAGEIVGQILWIKKQNNIPYERRVNIVYMGMGEPLDNLKNVSKAVKILAQNEGLAISPRRQTISTSGLAKQIKELGQMNLGVLLAISLHAVNDELRTELMPINKAYNIAAIMDAVREFPIDQRKRVMFEYLLIDGINDKLEHAKELVKLLNGIKAKVNLILFNPHEGSLYKRPSLENAIKFQDLLSNKGVTCTIRESKGLDISAACGQLKERAKEQ | not soluble
MGSDKIHHHHHHMGGCCSQEGCNTRPRYLPLKCYPGLPMRATRRLDLSAVERALREVQGRFAELSQHFTEPRDPFTDEVLLNVVEGYALIDDYVARGIDLFDLQQLNLMLEINATVLCGSDPARRLEFAPHLAATEAHFFNNVEGGIKDLYNWYCAYRSDSIWKRAAGVYVRILSKPQLFIEGNNRTGSLIVSYLLMRAGLPPFVLSLDNAEGYFNPSSVIRNSAKHGVKALYELPKIKKKYAAFLEAKAPEPGKFFLNGTPVPACEGSR | not soluble
MGSDKIHHHHHHMKIIHIVESSATGTLSMVCLIANRLAREGHDVHVIYSVRPDTPPALAAMFDTRVSLRHVQMKGAGLLRIAGRLRATLNEIGPDVVHLHSSFAGFLGRLSTLFALPKAAFFYSPHCISFMRRDISGVKRMAFIGLEWIACVRKCLYVACSESEGHAIRAWLRQPVVVVENAVSDTRSPQRSGDAERLADGPPCVVTVGGIRAQKNPELFARIAHGMRARGTRFVWIGDGDAAEKARLAEAGVEVTGWLPRDEVVRRLERADVYLSTSSWEGMPVSVIEAMLAGRPVIVSDCAGNVDVVRHLQTGLIYTTASDAIAWLERLAGDDALRRELARRASREARQRFGEERLFGELAPLYAASVAR | not soluble
MGHHHHHHSHMVDIDLPEPPKPTPPDQETEEEQRFRALFEQVAGEDMEVTAEELEYVLNAVLQKKKDIKFKKLSLISCKNIISLMDTSGNGKLEFDEFKVFWDKLKQWINLFLRFDADKSGTMSTYELRTALKAAGFQLSSHLLQLIVLRYADEELQLDFDDFLNCLVRLENASRVFQALSTKNKEFIHLNINEFIHLTMNI | soluble
SATLKVSDSVPAPSDDAEQLRTAFEGWGTNEDLIISILAHRSAEQRKVIRQAYHETYGEDLLKTLDKELSNDFERAILLWTLEPGERDALLANEATKRWTSSNQVLMEVACTRTSTQLLHARQAYHARYKKSLEEDVAHHTTGDFRKLLVSLVTSYRYEGDEVNMTLAKQEAKLVHEKIKDKHYNDEDVIRILSTRSKAQINATFNRYQDDHGEEILKSLEEGDDDDKFLALLRSTIQCLTRPELYFVDVLRSAINKTGTDEGALTRIVTTRAEIDLKVIGEEYQRRNSIPLEKAITKDTRGDYEKMLVALLGEDDA | soluble
MADSKAKPAKAANKTPPKSPGDPARAAKRLSLESEGANEGATAAPELSALEEAFRRFAVHGDTRATGKEMHGKNWSKLCKDCHVIDGKNVTVTDVDIVFSKIKGKSCRTITFEQFQEALEELAKKRFKDKSSEEAVREVHRLIEGRAPVISGVTKAVSSPTVSRLTDTSKFTGSHKERFDQSGKGKGKAGRVDLVDESGYVPGYKHAGTYDQKVQGGK | soluble
